# Target: His6-tagged SRC SH3SH2 (residues 84-251) (human) (UniProt P12931)
# Experiment: SPR; His6-SRC SH3SH2 captured on Ni-NTA dextran chip (NiD200M); PTP4A1 injected for 60 seconds at 50 μL/min; 25°C; 20 mM Tris pH 8.0, 250 mM NaCl, 0.05% Tween 20; single injections fit with a 1-to-1 model
substance,measurement,value
oxidized PTP4A1 (residues 1-160) for SPR and NMR (from UniProt Q93096 1-160) (domain or fragment),Kd,1500 nM
